This assay addresses T1, alkaline phosphatase D (PhoD) with a C-terminal 6-His tag (PhoD-H) (B. subtilis 168), P42251.
T1 chain: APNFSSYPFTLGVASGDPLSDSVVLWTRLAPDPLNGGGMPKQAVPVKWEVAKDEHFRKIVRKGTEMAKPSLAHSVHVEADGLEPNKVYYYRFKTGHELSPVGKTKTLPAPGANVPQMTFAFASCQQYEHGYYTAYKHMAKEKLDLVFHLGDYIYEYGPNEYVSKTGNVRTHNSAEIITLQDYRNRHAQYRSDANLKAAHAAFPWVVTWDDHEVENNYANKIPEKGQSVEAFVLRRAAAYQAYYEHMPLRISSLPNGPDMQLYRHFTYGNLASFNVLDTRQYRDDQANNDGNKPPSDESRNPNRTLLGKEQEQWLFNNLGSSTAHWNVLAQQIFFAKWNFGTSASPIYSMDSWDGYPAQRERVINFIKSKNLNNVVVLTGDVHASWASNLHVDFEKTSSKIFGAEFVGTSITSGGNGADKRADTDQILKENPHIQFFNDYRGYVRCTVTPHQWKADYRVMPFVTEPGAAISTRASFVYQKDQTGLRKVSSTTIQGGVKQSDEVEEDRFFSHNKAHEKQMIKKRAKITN
As to the kind of experiment: cross-linking; in vivo cross-linking of B. subtilis cells with 0.5 mM DSS in PBS pH 8.3, 20 min at 37 °C; cells recovered 1 h in fresh medium; 10% SDS-PAGE with β-mercaptoethanol and anti-His immunoblot of cell and supernatant fractions. Conditions: remark: other sources report otherwise.

B1: alkaline phosphatase D (PhoD) with a C-terminal 6-His tag (PhoD-H), P42251 57-583 (enzyme)
chain: T1 chain
Usually stoichiometry N stands for a count of units in the complex or per binding partner. B1 yielded a stoichiometry N of 2.

(Values after article PMC5343618.)
